In patent publication US20150344570A1 (published 2015) one finds He/Con_1a and He/Con_2b data, which are given here for 8 molecules.

The target of one experiment is T1, FcγRIa (human, UniProt P12314 16-292).
T1 construct: extracellular domain; Soluble extracellular domain with C-terminal His tag, used as analyte; also called FcgRI; CD64; not shown: His tag at the C terminus
Briefly: SPR (Biacore), captured antibody, FcγR as analyte, relative binding. How it is done:
(§1) The heterodimerized antibodies He Abs in which one of the H chains was introduced with an alteration were assayed for their binding activities to each activating FcγR and inhibitory FcγR according to the method described in Example 4. […] The activating FcγRs in FIGS. 26, 27, 28, and 29 are FcγRIa, FcγRIIa (R), FcγRIIa (H), and FcγRIIIa, respectively.
(§2) Analysis of interaction between objective antibody and the FcγR was carried out using Biacore T100 (GE Healthcare). HBS-EP+ (GE Healthcare) was used as the running buffer, and the measurement temperature was set to 25° C. Chips produced by immobilizing the antigen peptide by the amine coupling method to a Series S Sencor Chip CM5 (GE Healthcare), or alternatively, chips produced by allowing preliminarily biotinylated antigen peptides to interact with and immobilize onto a Series S Sensor Chip SA (certified) (GE Healthcare) were used. Antibodies of interest were captured onto an antigen peptide-immobilized chip, and allowed to interact to each FcγR diluted with running buffer. To regenerate and repeatedly use the chip, the antibodies captured on the chip were washed off by reacting 10 mM glycine-HCl, pH 1.5.

The next experiment addresses T2, FcγRIIb (human, UniProt P31994 43-217).
T2 construct: extracellular domain; Soluble extracellular domain with C-terminal His tag, used as analyte; also called FcgRIIb; CD32B; not shown: His tag at the C terminus
T2 sequence (looked up): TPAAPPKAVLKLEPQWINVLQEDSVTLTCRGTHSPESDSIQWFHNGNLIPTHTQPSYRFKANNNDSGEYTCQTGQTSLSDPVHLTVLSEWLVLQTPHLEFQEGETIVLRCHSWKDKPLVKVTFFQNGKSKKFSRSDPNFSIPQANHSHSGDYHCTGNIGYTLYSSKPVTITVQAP
The description is as above. As for the experimental part:
as §1, §2

T1 sequence (P12314 16-292): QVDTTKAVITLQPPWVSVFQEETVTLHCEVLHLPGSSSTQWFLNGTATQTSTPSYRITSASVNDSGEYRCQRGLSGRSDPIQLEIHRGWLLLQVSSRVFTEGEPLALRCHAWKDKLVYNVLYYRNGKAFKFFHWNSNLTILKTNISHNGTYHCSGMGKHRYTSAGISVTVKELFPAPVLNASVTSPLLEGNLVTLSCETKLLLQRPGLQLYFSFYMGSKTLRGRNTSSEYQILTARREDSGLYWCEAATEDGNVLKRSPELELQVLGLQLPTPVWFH

B1: GpH7-A5/GpH7-B3 variant I336_18N/GpL16-k0 (antibody, human IgG1, kappa)
heavy 1: not shown
heavy 2: not shown
light: DIVMTQSPLSLPVTPGEPASISCQASESLVHSNRNTYLHWYLQKPGQSPQLLIYKVSNRFSGVPDRFSGSGSGTDFTLKISRVEAEDVGVYYCSQNTHVPPTFGQGTKVEIERTVAAPSVFIFPPSDEQLKSGTASVVCLLNNFYPREAKVQWKVDNALQSGNSQESVTEQDSKDSTYSLSSTLTLSKADYEKHKVYACEVTHQGLSSPVTKSFNRGEC
notes: He Ab: mutation in one H chain only; also called He Ab
In the case of B1, in the experiment with FcγRIa, the He/Con_1a was 108 % of GpH7-A5/GpH7-B3/GpL16-k0. In addition, the He/Con_2b with FcγRIIb is 97.6 % of GpH7-A5/GpH7-B3/GpL16-k0.

B2: GpH7-A5/GpH7-B3 variant S298_14T/GpL16-k0 (antibody, human IgG1, kappa)
heavy 1: not shown
heavy 2: not shown
light: DIVMTQSPLSLPVTPGEPASISCQASESLVHSNRNTYLHWYLQKPGQSPQLLIYKVSNRFSGVPDRFSGSGSGTDFTLKISRVEAEDVGVYYCSQNTHVPPTFGQGTKVEIERTVAAPSVFIFPPSDEQLKSGTASVVCLLNNFYPREAKVQWKVDNALQSGNSQESVTEQDSKDSTYSLSSTLTLSKADYEKHKVYACEVTHQGLSSPVTKSFNRGEC
notes: as for B1
In the case of B2, the He/Con_1a in the experiment with FcγRIa is 107 % of GpH7-A5/GpH7-B3/GpL16-k0. In addition, the He/Con_2b in the experiment with FcγRIIb was 77.9 % of GpH7-A5/GpH7-B3/GpL16-k0.

B3: GpH7-A5/GpH7-B3 variant N325_16H/GpL16-k0 (antibody, human IgG1, kappa)
heavy 1: not shown
heavy 2: not shown
light: DIVMTQSPLSLPVTPGEPASISCQASESLVHSNRNTYLHWYLQKPGQSPQLLIYKVSNRFSGVPDRFSGSGSGTDFTLKISRVEAEDVGVYYCSQNTHVPPTFGQGTKVEIERTVAAPSVFIFPPSDEQLKSGTASVVCLLNNFYPREAKVQWKVDNALQSGNSQESVTEQDSKDSTYSLSSTLTLSKADYEKHKVYACEVTHQGLSSPVTKSFNRGEC
notes: as for B1
For the molecule B3, in the experiment with FcγRIa, the He/Con_1a is 95.1 % of GpH7-A5/GpH7-B3/GpL16-k0. For the same molecule, the He/Con_2b in the experiment with FcγRIIb is 70.1 % of GpH7-A5/GpH7-B3/GpL16-k0.

B4: GpH7-A5/GpH7-B3 variant N325_11K/GpL16-k0 (antibody, human IgG1, kappa)
heavy 1: not shown
heavy 2: not shown
light: DIVMTQSPLSLPVTPGEPASISCQASESLVHSNRNTYLHWYLQKPGQSPQLLIYKVSNRFSGVPDRFSGSGSGTDFTLKISRVEAEDVGVYYCSQNTHVPPTFGQGTKVEIERTVAAPSVFIFPPSDEQLKSGTASVVCLLNNFYPREAKVQWKVDNALQSGNSQESVTEQDSKDSTYSLSSTLTLSKADYEKHKVYACEVTHQGLSSPVTKSFNRGEC
notes: as for B1
In the case of B4, the He/Con_1a with FcγRIa is 80.9 % of GpH7-A5/GpH7-B3/GpL16-k0. Further, the He/Con_2b in the experiment with FcγRIIb was 10.4 % of GpH7-A5/GpH7-B3/GpL16-k0.

B5: GpH7-A5/GpH7-B3 variant N325_05P/GpL16-k0 (antibody, human IgG1, kappa)
heavy 1: not shown
heavy 2: not shown
light: DIVMTQSPLSLPVTPGEPASISCQASESLVHSNRNTYLHWYLQKPGQSPQLLIYKVSNRFSGVPDRFSGSGSGTDFTLKISRVEAEDVGVYYCSQNTHVPPTFGQGTKVEIERTVAAPSVFIFPPSDEQLKSGTASVVCLLNNFYPREAKVQWKVDNALQSGNSQESVTEQDSKDSTYSLSSTLTLSKADYEKHKVYACEVTHQGLSSPVTKSFNRGEC
notes: as for B1
For the molecule B5, the He/Con_1a with FcγRIa was 88.8 % of GpH7-A5/GpH7-B3/GpL16-k0. Moreover, the He/Con_2b in the experiment with FcγRIIb was 26 % of GpH7-A5/GpH7-B3/GpL16-k0.

B6: GpH7-A5/GpH7-B3 variant S298_12R/GpL16-k0 (antibody, human IgG1, kappa)
heavy 1: not shown
heavy 2: not shown
light: DIVMTQSPLSLPVTPGEPASISCQASESLVHSNRNTYLHWYLQKPGQSPQLLIYKVSNRFSGVPDRFSGSGSGTDFTLKISRVEAEDVGVYYCSQNTHVPPTFGQGTKVEIERTVAAPSVFIFPPSDEQLKSGTASVVCLLNNFYPREAKVQWKVDNALQSGNSQESVTEQDSKDSTYSLSSTLTLSKADYEKHKVYACEVTHQGLSSPVTKSFNRGEC
notes: as for B1
Consider B6, for which, in the experiment with FcγRIa, the He/Con_1a was 109 % of GpH7-A5/GpH7-B3/GpL16-k0. Further, in the experiment with FcγRIIb, the He/Con_2b is 57.8 % of GpH7-A5/GpH7-B3/GpL16-k0.

B7: GpH7-A5/GpH7-B3 variant I336_19Q/GpL16-k0 (antibody, human IgG1, kappa)
heavy 1: not shown
heavy 2: not shown
light: DIVMTQSPLSLPVTPGEPASISCQASESLVHSNRNTYLHWYLQKPGQSPQLLIYKVSNRFSGVPDRFSGSGSGTDFTLKISRVEAEDVGVYYCSQNTHVPPTFGQGTKVEIERTVAAPSVFIFPPSDEQLKSGTASVVCLLNNFYPREAKVQWKVDNALQSGNSQESVTEQDSKDSTYSLSSTLTLSKADYEKHKVYACEVTHQGLSSPVTKSFNRGEC
notes: as for B1
B7: the He/Con_1a in the experiment with FcγRIa is 104 % of GpH7-A5/GpH7-B3/GpL16-k0. Further, the He/Con_2b with FcγRIIb was 58.2 % of GpH7-A5/GpH7-B3/GpL16-k0.

B8: GpH7-A5/GpH7-B3 variant S298_18N/GpL16-k0 (antibody, human IgG1, kappa)
heavy 1: not shown
heavy 2: not shown
light: DIVMTQSPLSLPVTPGEPASISCQASESLVHSNRNTYLHWYLQKPGQSPQLLIYKVSNRFSGVPDRFSGSGSGTDFTLKISRVEAEDVGVYYCSQNTHVPPTFGQGTKVEIERTVAAPSVFIFPPSDEQLKSGTASVVCLLNNFYPREAKVQWKVDNALQSGNSQESVTEQDSKDSTYSLSSTLTLSKADYEKHKVYACEVTHQGLSSPVTKSFNRGEC
notes: as for B1
Turning to B8, the He/Con_1a with FcγRIa was 108 % of GpH7-A5/GpH7-B3/GpL16-k0. Besides, the He/Con_2b with FcγRIIb was 48.1 % of GpH7-A5/GpH7-B3/GpL16-k0.
